Reference: patent US20180362585A1 (Bicycle, published 2018)
Numbered stars: 1 amine (or outer) side, 2 acyl side, 3 side chain; on linkers, the order of the positions; unused ones are H or OH. Bridge positions count the residues as written; N and C are the ends. Ends that are not written are not given here. TBMB = c1c(C[*:1])cc(C[*:3])cc1C[*:2]

Each binder was assayed against T1, human plasma Kallikrein (human, UniProt P03952 20-638) (assay: phage binding assay).
T1 construct: also called hPK; human PK
Method: Library transformant colonies, or selection output colonies, were picked and grown as individual cultures in 2TY broth containing selective antibiotic. The picked colonies were DNA-sequenced using a QIAgen PyroMark Q96 DNA sequencer to reveal the amino-acid substitution present in each clone, and were assayed for human plasma Kallikrein binding as follows. The phage-containing supernatant was harvested from the culture and phage were cyclised with tris bromomethyl benzene (TBMB) based on the methods of Heinis et al (Nature Chemical Biology vol. 5 pp 502-507 (2009)). The purified phage from this process were assayed for binding to biotinylated human plasma Kallikrein using a homogeneous plate-based binding assay; assay read-out measured on a BMG Labtech Pherastar FS plate reader. The quantitative binding data from duplicate assay samples was averaged (mean) and expressed as signal:background. […] The assay data was correlated with the peptide sequences.
Selections against human plasma Kallikrein were performed at a variety of stringencies (see Phage selections' in Methods above). All output sequences were identified and analysed for target binding (see ‘Randomisation of peptide domains—Assay of binding of individual clones’ in Methods above). Table 17 lists each unique sequence, its relative abundance in the selection output (frequency), and a rank number according to target binding strength.

T1 sequence (P03952 20-638 limits assumed): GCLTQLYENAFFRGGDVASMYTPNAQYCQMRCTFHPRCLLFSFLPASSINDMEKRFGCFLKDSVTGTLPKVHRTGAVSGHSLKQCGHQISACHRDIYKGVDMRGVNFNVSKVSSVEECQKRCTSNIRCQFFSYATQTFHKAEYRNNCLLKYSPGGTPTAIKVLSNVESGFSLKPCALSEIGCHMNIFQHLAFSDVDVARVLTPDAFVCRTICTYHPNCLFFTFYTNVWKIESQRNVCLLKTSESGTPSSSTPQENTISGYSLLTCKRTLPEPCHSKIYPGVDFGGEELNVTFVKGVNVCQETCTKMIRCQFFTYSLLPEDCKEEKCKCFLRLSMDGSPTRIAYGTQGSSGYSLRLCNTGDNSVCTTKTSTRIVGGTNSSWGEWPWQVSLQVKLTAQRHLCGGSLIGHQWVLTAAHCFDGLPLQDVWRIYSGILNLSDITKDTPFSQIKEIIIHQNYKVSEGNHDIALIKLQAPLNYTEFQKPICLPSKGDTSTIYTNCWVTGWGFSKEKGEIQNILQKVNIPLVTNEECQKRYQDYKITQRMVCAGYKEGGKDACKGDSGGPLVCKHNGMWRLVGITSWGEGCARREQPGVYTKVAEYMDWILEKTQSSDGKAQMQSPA

| Binder | RANK (Kallikrein binding) |
| --- | --- |
| CSFPYRCTHQDLC (linker 1-7-13 via TBMB (inferred), on phage) | 5 |
| CRFPFKCTHQDLC (linker 1-7-13 via TBMB (inferred), on phage) | 11 |
| CSFPFKCTHQDLC (linker 1-7-13 via TBMB (inferred), on phage) | 6 |
| CSFPIRCTHQDLC (linker 1-7-13 via TBMB (inferred), on phage) | 15 |
| CSFLYKCTHQDLC (linker 1-7-13 via TBMB (inferred), on phage) | 29 |
| CSFMYKCTHQDLC (linker 1-7-13 via TBMB (inferred), on phage) | 37 |
| CSFPYKCTHQDLC (linker 1-7-13 via TBMB (inferred), on phage) | 22 |
| CSFPFWCTHQDLC (linker 1-7-13 via TBMB (inferred), on phage) | 34 |
| CSFPWRCTHQDLC (linker 1-7-13 via TBMB (inferred), on phage) | 23 |

Target: T1, human plasma Kallikrein
Test: phage binding assay
Remark: another data set of the same source

| Binder | BINDING ASSAY SIGNAL |
| --- | --- |
| CDWPARCMHQEFC (linker 1-7-13 via TBMB, on phage) | 63 |
| CQWPARCMHQDMC (linker 1-7-13 via TBMB (inferred), on phage) | 75 |
| CSWPARCTHAEMC (linker 1-7-13 via TBMB, on phage) | 59 |
| CAWPARCLHADMC (linker 1-7-13 via TBMB, on phage) | 66 |
| CAWPARCTHADLC (linker 1-7-13 via TBMB, on phage) | 79 |
| CPWPARCTHQNLC (linker 1-7-13 via TBMB (inferred), on phage) | 69 |
| CMWPARCMHQDLC (linker 1-7-13 via TBMB (inferred), on phage) | 79 |
| CQWPARCTHSDLC (linker 1-7-13 via TBMB (inferred), on phage) | 74 |
| CPWPARCLHTDLC (linker 1-7-13 via TBMB (inferred), on phage) | 58 |
| CAWPARCTHVDLC (linker 1-7-13 via TBMB, on phage) | 82 |
| CPWPARCTHTDLC (linker 1-7-13 via TBMB (inferred), on phage) | 70 |
| CRWPARCTHTDLC (linker 1-7-13 via TBMB (inferred), on phage) | 59 |
| CSWPARCIHQDLC (linker 1-7-13 via TBMB, on phage) | 68 |
| CSWPARCTHSDLC (linker 1-7-13 via TBMB, on phage) | 59 |
| CSWPARCTHADLC (linker 1-7-13 via TBMB, on phage) | 100 |
| CHWPARCTHQELC (linker 1-7-13 via TBMB, on phage) | 85 |
| CHWPARCMHQDLC (linker 1-7-13 via TBMB, on phage) | 71 |
| CTWPARCTHADLC (linker 1-7-13 via TBMB, on phage) | 71 |
| CAWPARCTHTDFC (linker 1-7-13 via TBMB, on phage) | 80 |
| CNWPARCTHQDLC (linker 1-7-13 via TBMB (inferred), on phage) | 116 |
| CLWPARCTHQDLC (linker 1-7-13 via TBMB, on phage) | 90 |
| CAWPARCTHYDLC (linker 1-7-13 via TBMB, on phage) | 70 |

| Binder | BINDING ASSAY SIGNAL |
| --- | --- |
| CAWPARCTHTDLC (linker 1-7-13 via TBMB, on phage) | 92 |
| CPWPARCTHQDLC (linker 1-7-13 via TBMB (inferred), on phage) | 107 |
| CRWPARCTHQDLC (linker 1-7-13 via TBMB (inferred), on phage) | 73 |
| CTWPARCTHTDMC (linker 1-7-13 via TBMB, on phage) | 67 |
| CAWPARCTHTHLC (linker 1-7-13 via TBMB, on phage) | 66 |
| CTWPARCTHTDLC (linker 1-7-13 via TBMB, on phage) | 88 |
| CVWPARCTHQDLC (linker 1-7-13 via TBMB, on phage) | 71 |
| CLWPARCTHADLC (linker 1-7-13 via TBMB, on phage) | 74 |
| CHWPARCTHQDLC (linker 1-7-13 via TBMB, on phage) | 110 |
| CSWPARCTHSHLC (linker 1-7-13 via TBMB, on phage) | 72 |
| CEWPARCLHTDLC (linker 1-7-13 via TBMB, on phage) | 60 |
| CSWPARCTHTELC (linker 1-7-13 via TBMB, on phage) | 69 |
| CSWPARCLHTELC (linker 1-7-13 via TBMB, on phage) | 68 |
| CQWPARCMHQELC (linker 1-7-13 via TBMB (inferred), on phage) | 73 |
| CTWPARCLHQDLC (linker 1-7-13 via TBMB, on phage) | 73 |
| CSWPARCVHQDMC (linker 1-7-13 via TBMB, on phage) | 61 |
| CAWPARCTHQTMC (linker 1-7-13 via TBMB, on phage) | 61 |
| CTWPARCTHQAFC (linker 1-7-13 via TBMB, on phage) | 59 |
| CTWPARCLHQHMC (linker 1-7-13 via TBMB, on phage) | 61 |
| CAWPARCLHQDWC (linker 1-7-13 via TBMB, on phage) | 63 |
| CAWPARCMHDDLC (linker 1-7-13 via TBMB, on phage) | 69 |
